Assay results taken from article PMC5378477, “Crystal structure and dynamics of a lipid-induced potential desensitized-state of a pentameric ligand-gated channel” (eLife, 2017).

Target: the molecule itself
Assay: crystal structure; GLIC wt in DDM with 50 uM DHA and 0.5 mg/ml E. coli polar extract; sitting drop at 4 °C, sodium acetate pH 3.9-4.2, ammonium sulfate, PEG4000; 3.25 Å

B1: GLIC wt (natural protein)
chain: QDMVSPPPPIADEPLTVNTGIYLIECYSLDDKAETFKVNAFLSLSWKDRRLAFDPVRSGVRVKTYEPEAIWIPEIRFVNVENARDADVVDISVSPDGTVQYLERFSARVLSPLDFRRYPFDSQTLHIYLIVRSVDTRNIVLAVDLEKVGKNDDVFLTGWDIESFTAVVKPANFALEDRLESKLDYQLRISRQYFSYIPNIILPMLFILFISWTAFWSTSYEANVTLVVSTLIAHIAFNILVETNLPKTPYMTYTGAIIFMIYLFYFVAVIEVTVQHYLKVESQPARAASITRASRIAFPVVFLLANIILAFLFFGF
notes: GLIC, prokaryotic pH-gated pentameric ligand-gated ion channel; construct as in Hilf and Dutzler 2009 and Bocquet et al. 2009; residues 5-315 are named in the structure; Homopentamer; Crystallised with 50 uM DHA and E. coli polar lipids; also called GLIC-pH4-DHA (the structure solved here); source: E. coli C43, purified (amylose resin, SEC in DDM); not shown: MBP, N-terminal, cleaved
stoichiometry N: 5
